Values quoted from earlier work, collected in publication PMC9880166.
Read-outs that look alike come from different tables or passages of the source.

Columns and labels:
[1] = target: prolactin receptor (Homo sapiens) (UniProt P16471); experiment: SPR
[2] = target: prolactin receptor (Homo sapiens) (UniProt P16471)

Sequence of UniProt P16471 (P16471 25-234): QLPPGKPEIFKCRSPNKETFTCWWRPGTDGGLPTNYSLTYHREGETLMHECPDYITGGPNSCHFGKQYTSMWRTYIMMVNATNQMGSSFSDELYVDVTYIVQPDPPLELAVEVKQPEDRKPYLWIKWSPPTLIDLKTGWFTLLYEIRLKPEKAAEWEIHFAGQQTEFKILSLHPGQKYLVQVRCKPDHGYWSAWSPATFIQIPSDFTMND
Sequence of prolactin (P01236 29-227): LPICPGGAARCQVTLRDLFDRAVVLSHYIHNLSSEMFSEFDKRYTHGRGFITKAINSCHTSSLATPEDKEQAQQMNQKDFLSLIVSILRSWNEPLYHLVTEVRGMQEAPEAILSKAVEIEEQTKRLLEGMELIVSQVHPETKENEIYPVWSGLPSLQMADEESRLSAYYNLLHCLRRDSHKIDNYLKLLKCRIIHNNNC

Kd [1]: 23 nM
Kd [2]: 29.9 nM
Substance: prolactin (from UniProt P01236)
